Measured values taken from publication PMC3720670, “Function and X-Ray crystal structure of Escherichia coli YfdE” (PLoS ONE, 2013).

Key:
[1] = target: UctC (Acetobacter aceti strain 1023) (UniProt A9X6P9); experiment: SEC; analytical gel filtration, Superdex 200 Hi-load 16/60, 50 mM Tris-HCl pH 8.0, 100 mM KCl; apparent solution molecular weights from retention times
[2] = substrate: CC(=O)SCCNC(=O)CCNC(=O)[C@H](O)C(C)(C)COP(=O)(O)OP(=O)(O)OC[C@H]1O[C@@H](n2cnc3c(N)ncnc32)[C@H](O)[C@@H]1OP(=O)(O)O; experiment: HPLC of oxalyl-CoA formation, Michaelis-Menten fit; type: biochemical, Escherichia coli; conditions: 50 mM oxalate (subsaturating, value likely lower than true), 50 mM potassium phosphate, pH 6.7, parameter symbol, unit prefix and kcat unit not given, inferred
[3] = substrate: CC(=O)SCCNC(=O)CCNC(=O)[C@H](O)C(C)(C)COP(=O)(O)OP(=O)(O)OC[C@H]1O[C@@H](n2cnc3c(N)ncnc32)[C@H](O)[C@@H]1OP(=O)(O)O; experiment: HPLC of oxalyl-CoA formation, Michaelis-Menten fit; type: biochemical, Escherichia coli; conditions: 50 mM oxalate (subsaturating, value likely lower than true), 50 mM potassium phosphate, pH 6.7, parameter symbol, unit prefix and kcat unit not given, inferred; remark: listed apart in the source
Excerpt: HPLC of oxalyl-CoA formation, Michaelis-Menten fit on H6YfdE

[4] = target: the molecule itself; experiment: SEC; analytical gel filtration, Superdex 200 Hi-load 16/60, 50 mM Tris-HCl pH 8.0, 100 mM KCl; apparent solution molecular weights from retention times

Molecule: UctC (from UniProt A9X6P9 1-389) (enzyme)
- stoichiometry N [1]: 2

B1: YfdE (Escherichia coli K-12) (protein)
chain: MTNNESKGPFEGLLVIDMTHVLNGPFGTQLLCNMGARVIKVEPPGHGDDTRTFGPYVDGQSLYYSFINHGKESVVLDLKNDHDKSIFINMLKQADVLAENFRPGTMEKLGFSWETLQEINPRLIYASSSGFGHTGPLKDAPAYDTIIQAMSGIMMETGYPDAPPVRVGTSLADLCGGVYLFSGIVSALYGREKSQRGAHVDIAMFDATLSFLEHGLMAYIATGKSPQRLGNRHPYMAPFDVFNTQDKPITICCGNDKLFSALCQALELTELVNDPRFSSNILRVQNQAILKQYIERTLKTQAAEVWLARIHEVGVPVAPLLSVAEAIKLPQTQARNMLIEAGGIMMPGNPIKISGCADPHVMPGAATLDQHGEQIRQEFSS
notes: untagged full-length, recombinant in E. coli BL21(DE3), plasmid pJK566 (Arg232 repaired), only partially purified; dimer
- Km ([2]; partially pure enzyme): 17 µM
- kcat ([2]; partially pure enzyme): 11 s⁻¹

B2: YfdEH6 (Escherichia coli K-12) (protein)
chain: MTNNESKGPFEGLLVIDMTHVLNGPFGTQLLCNMGARVIKVEPPGHGDDTRTFGPYVDGQSLYYSFINHGKESVVLDLKNDHDKSIFINMLKQADVLAENFRPGTMEKLGFSWETLQEINPRLIYASSSGFGHTGPLKDAPAYDTIIQAMSGIMMETGYPDAPPVRVGTSLADLCGGVYLFSGIVSALYGREKSQRGAHVDIAMFDATLSFLEHGLMAYIATGKSPQRLGNRHPYMAPFDVFNTQDKPITICCGNDKLFSALCQALELTELVNDPRFSSNILRVQNQAILKQYIERTLKTQAAEVWLARIHEVGVPVAPLLSVAEAIKLPQTQARNMLIEAGGIMMPGNPIKISGCADPHVMPGAATLDQHGEQIRQEFSS
notes: full-length with C-terminal hexahistidine tag kept (stop codon converted to Ser), pJK594, E. coli C41(DE3)
- Km [2]: 13 µM
- kcat [2]: 6.9 s⁻¹

B3: H6YfdE (Escherichia coli K-12) (protein)
chain: MTNNESKGPFEGLLVIDMTHVLNGPFGTQLLCNMGARVIKVEPPGHGDDTRTFGPYVDGQSLYYSFINHGKESVVLDLKNDHDKSIFINMLKQADVLAENFRPGTMEKLGFSWETLQEINPRLIYASSSGFGHTGPLKDAPAYDTIIQAMSGIMMETGYPDAPPVRVGTSLADLCGGVYLFSGIVSALYGREKSQRGAHVDIAMFDATLSFLEHGLMAYIATGKSPQRLGNRHPYMAPFDVFNTQDKPITICCGNDKLFSALCQALELTELVNDPRFSSNILRVQNQAILKQYIERTLKTQAAEVWLARIHEVGVPVAPLLSVAEAIKLPQTQARNMLIEAGGIMMPGNPIKISGCADPHVMPGAATLDQHGEQIRQEFSS
notes: full-length with N-terminal hexahistidine tag kept, pET28a (pJK593), E. coli C41(DE3); last residue Ser381; dimer
- Km [3]: 18 µM
- kcat [3]: 12 s⁻¹

B4: YfdE fused to an N-terminal hexahistidine tag (H6YfdE) (enzyme, Escherichia coli, UniProt P76518 1-381, looked up)
chain: MTNNESKGPFEGLLVIDMTHVLNGPFGTQLLCNMGARVIKVEPPGHGDDTRTFGPYVDGQSLYYSFINHGKESVVLDLKNDHDKSIFINMLKQADVLAENFRPGTMEKLGFSWETLQEINPRLIYASSSGFGHTGPLKDAPAYDTIIQAMSGIMMETGYPDAPPVRVGTSLADLCGGVYLFSGIVSALYGREKSQRGAHVDIAMFDATLSFLEHGLMAYIATGKSPQRLGNRHPYMAPFDVFNTQDKPITICCGNDKLFSALCQALELTELVNDPRFSSNILRVQNQAILKQYIERTLKTQAAEVWLARIHEVGVPVAPLLSVAEAIKLPQTQARNMLIEAGGIMMPGNPIKISGCADPHVMPGAATLDQHGEQIRQEFSS
notes: YfdE, Escherichia coli; yfdE gene amplified from genomic DNA of a strain BW25113 derivative; last residue Ser381; Expressed from pET28a (NdeI/XhoI); The appendage and the first five to six residues are disordered in the crystal; also called acetyl-CoA:oxalate CoA-transferase; ACOCT; source: E. coli C41(DE3), purified (ammonium sulfate, metal-charged nitrilotriacetic acid column); not shown: His6, …
- stoichiometry N [4]: 2
